The values that follow come from article doi:10.1101/497123 (2018).

As a reminder, the koff is a measure of how fast the partners let go of each other. For orientation: Kd means a measure of binding affinity in units of concentration. Read a low Kd as a tighter complex.

Targets include m11; m9; m15; m12; m13; m14.
Common to all, as to test: BLI
A general note: Biolayer interferometry detects binding as a change in optical thickness at a sensor tip.

Assay [1] concerns the target T1, full length H7 HA trimer (influenza A virus, subtype H7 (strain …)).
For assay [2], the target named is T1, full length H7 HA trimer. This is another data set of the same source.

B1: CT149 Fab (Fab, V domains shown)
VH: QVQLVQSGAEVKKPGASVKVSCKTSGYSFSTYGVSWVRQAPGQGPEWVGWISAYTGITDYAQKFQGRVTLTTDATTATAFLDLRSLRPDDTATYFCARDKVQGRVEVGSGGRHDYWGQGTLVIVSS
VL: EVVLTQSPGTLALPPGERATLSCRASHRVGSTYIAWYQQKSGQAPRRLIYGASNRATDIPDRFSGSGSGTDFTLTIRRLEPEDSAVYYCQQFSVSPWTFGQGTRVEIK
For the molecule B1, the koff in the assay with full length H7 HA trimer [1] was determined as 0.0031 s⁻¹; in the assay with m11, 0.0033 s⁻¹; with m9 it was 0.003 s⁻¹; with m15, 0.0034 s⁻¹; with m12, 0.003 s⁻¹; in the assay with m13, 0.0018 s⁻¹. The molecule further had a koff in the assay with m14 of 0.0029 s⁻¹. For the same molecule, the Kd came out at 9 nM with m11; 7 nM with m9; 9.8 nM with m15; 8.2 nM with m12; 2.7 nM with m13; 7.2 nM with m14. The same molecule returned a Kd with full length H7 HA trimer [2] of 3.7 nM.
